For this experiment, the target named is T1, mouse Toll-like receptor 2 (mouse, UniProt Q9QUN7 25-784).
T1 construct: whole, on cells; also called murine TLR2; TLR2
Kind of experiment: anti-His whole-mount immunofluorescence of mouse maxillary gingival tissue (oral tissue that expresses TLR2) 24 h after oral lavage with scaTLR2-secreting Lactobacillus. As to the method: The ability of Lactobacillus transformants to secrete functional single chain antibody (scAb) in the oral cavity, and the ability of the scAb to bind to oral tissue that express TLR2 was next assessed. Mice were administered by one oral lavage the following Lactobacillus transformants: EV (empty vector transformed, negative control), scahTLR4 (single chain antibody against human TLR4, negative control), and scaTLR2 (single chain antibody against TLR2). After 24 h the mice were sacrificed, Lactobacillus persistence was assessed by culturing viable bacteria and enumerating CFU, and the maxillary gingival tissues were processed for whole mounting and stained with an antibody to the His-tag present in the single chain antibodies Similar Lactobacillus CFU were recovered in all three groups. […] In the control groups there was no detection of His-positive staining (FIG. 7A-B). Therefore, scaTLR2 is secreted by the transformed Lactobacilli in vivo, and avidly binds to oral mucosal tissue.

The source of these data is US20210393711A1 (YISSUM RESEARCH DEVELOPMENT COMPANY OF THE HEBREW …, published 2021).

T1 sequence (Q9QUN7 25-784): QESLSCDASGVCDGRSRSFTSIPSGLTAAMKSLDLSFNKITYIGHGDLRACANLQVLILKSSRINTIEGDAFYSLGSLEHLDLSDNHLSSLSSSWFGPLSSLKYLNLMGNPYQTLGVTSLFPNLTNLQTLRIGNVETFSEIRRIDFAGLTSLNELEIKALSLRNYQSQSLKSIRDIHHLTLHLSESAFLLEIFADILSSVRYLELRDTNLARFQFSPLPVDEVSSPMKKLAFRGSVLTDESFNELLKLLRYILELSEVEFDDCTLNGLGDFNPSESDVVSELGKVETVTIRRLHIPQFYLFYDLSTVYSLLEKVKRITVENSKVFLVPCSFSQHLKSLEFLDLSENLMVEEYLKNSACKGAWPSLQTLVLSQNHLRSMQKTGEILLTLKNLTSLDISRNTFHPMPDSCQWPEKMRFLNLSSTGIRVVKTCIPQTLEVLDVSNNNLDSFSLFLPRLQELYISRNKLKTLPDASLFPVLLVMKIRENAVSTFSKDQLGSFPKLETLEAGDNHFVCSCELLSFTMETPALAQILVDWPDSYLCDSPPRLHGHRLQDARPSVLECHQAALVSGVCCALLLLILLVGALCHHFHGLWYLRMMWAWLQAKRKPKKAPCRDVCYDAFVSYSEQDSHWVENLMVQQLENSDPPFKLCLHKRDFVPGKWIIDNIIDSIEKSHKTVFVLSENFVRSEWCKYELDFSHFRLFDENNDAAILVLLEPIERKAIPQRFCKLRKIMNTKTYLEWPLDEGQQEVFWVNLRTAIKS

B1: anti-TLR2 single chain antibody (scAb) secreted by transformed Lactobacillus, built from the variable regions of mAb T2.5 (scFv)
scFv: QVQLQQSGPELVNPGASVKLSCKASGFTFTTYGINWVKQGPGQGLEWIGWIYPRDGSTNFNENFKDKAALTVDTSSSTAYMELHSLTSEDSAVYFCARLTGGTFLDYWGQGTTVTVSSGGGGSGGGGSGGGGSDIELTQSPASLAVSLGQRATISCRASESVEYYGTSLMQWYQQKPGQPPKLLIFGASNVESGVPVRFSGSGSGTDFSLNIHPVEEDDIVMYFCQQSRKLPWTFGGGTKLEIKR
notes: also called scaTLR2; anti-TLR2 scAb
Turning to B1, the binding result is listed as “binds”.
